Values of other authors as cited in PMC2678197.
pKd: −log10 of the molar value.

What was measured:
[1] = target: CCR3 N-terminal peptide (truncated, non-sulfated) 8-23 (Homo sapiens) (UniProt P51677)
[2] = target: CCR3 N-terminal peptide (35 residues, non-sulfated) 1-35 (Homo sapiens) (UniProt P51677)
[3] = target: CCR5 N-terminal peptide (unsulfated) N-terminal region (Homo sapiens) (UniProt P51681); experiment: NMR
[4] = target: CCR5 N-terminal peptide (bis-sulfated) N-terminal region (Homo sapiens) (UniProt P51681); experiment: NMR
Chain of CCR5 N-terminal peptide (bis-sulfated) N-terminal region (Homo sapiens) (P51681 1-27): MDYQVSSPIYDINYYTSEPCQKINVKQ

Chain of eotaxin (P51671 24-97): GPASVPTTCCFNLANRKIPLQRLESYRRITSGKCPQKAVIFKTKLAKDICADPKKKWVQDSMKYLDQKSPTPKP
Chain of RANTES (P13501 27-91): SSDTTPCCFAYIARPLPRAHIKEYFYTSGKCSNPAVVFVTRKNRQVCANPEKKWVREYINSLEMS
Chain of CCR3 N-terminal peptide (35 residues, non-sulfated) 1-35 (Homo sapiens) (P51677 1-35): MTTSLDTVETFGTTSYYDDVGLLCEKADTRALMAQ

Row | Substance | pKd [1] | pKd [2] | pKd [3] | pKd [4]
1 | eotaxin (from UniProt P51671) | 3.87 | 4.10 | – | –
2 | RANTES (from UniProt P13501) | – | – | 3.77 | > 4.70
